# Experimental data: patent publication US11299526B2, “p53-BAD fusion proteins” (University of Utah Research Foundation, priority 2018, dated 2022)
# Entries after “also recorded” stand apart in the source; their conditions may differ.
# B1: Bad/112,136: Bad with S112A and S136A mutations (SEQ ID NO:2), no p53, negative control (protein)
# chain: MFQIPEFEPSEQEDSSSAERGLGPSPAGDGPSGSGKHHRQAPGLLWDASHQQEQPTSSSHHGGAGAVEIRSRHSAYPAGTEDDEGMGEEPSPFRGRSRAAPPNLWAAQRYGRELRRMSDEFVDSFKKGLPRPKSAGTATQMRQSSSWTRVFQSWWDRNLGRGSSAPSQ
# modifications: mutated BAD peptide
# B2: Bad: EGFP-tagged human Bad without p53 (SEQ ID NO:1), negative control (protein, UniProt Q92934 1-168, looked up)
# Bcl2-associated agonist of …: MFQIPEFEPSEQEDSSSAERGLGPSPAGDGPSGSGKHHRQAPGLLWDASHQQEQPTSSSHHGGAGAVEIRSRHSSYPAGTEDDEGMGEEPSPFRGRSRSAPPNLWAAQRYGRELRRMSDEFVDSFKKGLPRPKSAGTATQMRQSSSWTRVFQSWWDRNLGRGSSAPSQ
# modifications: EGFP tag
# Assays:
# [1] = system: OVCAR-3 cells; conditions: cited from earlier work
# [2] = Preliminary toxicity study, IP injected polymer and polymer-Ad; conditions: mouse, in vivo
# [3] = system: Kuramochi cells; test: Paclitaxel cell viability assay; format: cell-based; conditions: Homo sapiens, 48 hr
# Procedure: Paclitaxel powder (LC Laboratories; Wobum, Mass.) was dissolved in DMSO to 10 mg/mL to make a stock solution. To determine the paclitaxel IC50 in Kuramochi cells, 8×10^3 Kuramochi cells were seeded in 96-well plates 24 hr prior to drug treatment. Paclitaxel in complete growth medium was added at increasing concentrations, and the cells were incubated for 48 hr. The Aqueous One Cell Proliferation Assay (Promega) was used to assess cell viability. For gene transfection and paclitaxel combination treatment, the cells were transfected first. 4 hr after transfection, paclitaxel was added at 100 nM or 200 nM, and the cells were incubated for 48 hr as previously optimized by our lab.
# After confirming the high apoptotic potential of p53-Bad/112,136, we wanted to test the possibility of combining p53-Bad/112,136 gene therapy with paclitaxel, a standard-of-care for HGSC. Based on a genomic and gene expression profile study with 47 ovarian cancer cell lines, Kuramochi was identified to be the best model for high grade serous ovarian cancer, with the highest genetic similarity to ovarian tumors. The IC50 of paclitaxel was determined using a cell viability […] assay. Kuramochi cells were incubated with different paclitaxel concentrations ranging from 0 nM to 1000 nM for 48 hr. The IC50 value was determined to be approximately 100 nM. […]
# [4] = system: SKOV-3 cells; test: 7-AAD late apoptosis/cell death assay; format: cell-based, human; conditions: SKOV-3, 24 hr post-transfection
# Procedure: (§1) Images of p53-BH3 (EGFP tagged on N-terminus) can be acquired 18 h post-transfection with an Olympus IX71F fluorescence microscope with a F-View Monochrome CCD camera and analyzed with ImageJ using Pearson's correlation coefficient (PCC) and post Costes' algorithm. PCC≥0.6 are considered to be colocalized. […] Apoptosis assay: 7-AAD assay (measuring late-stage apoptosis) can be performed as done before as an initial screen. As before, cells can be stained with […] working solution of 7-aminoactinomycin D (7-AAD) 24 hr post-transfection. Cells can be analyzed and gated for EGFP with the same fluorescence intensity to ensure equal detection of proteins
# (§2) 7-AAD assay was performed as before (14, 15). Briefly, the cells were collected 24 hr post-transfection. The cell pellets were resuspended in 300 μL of 1.25 μg/mL 7-AAD in PBS. The cells were incubated on ice for 20 minutes, and analyzed using FACS-Canto-II similar to the TMRE assay. The cells were gated for EGFP positive (excitation at 480 nm and emission at 535 nm) and 7-AAD positive (excitation at 496 nm and emission at 785 nm). The constructs were assayed in triplicates. The lowest and highest values were set at 0% and 100%, respectively (relative 7-AAD) as before (14).
# [5] = system: SKOV-3, OVCAR-3, ID8 and Kuramochi cells; test: 7-AAD late apoptosis/cell death assay, statements for all four ovarian cancer cell lines; format: cell-based, human, mouse; conditions: 24 hr post-transfection
# Procedure: as §2
# [6] = system: OVCAR-3 cells; test: TMRE mitochondrial depolarization (MOMP) assay; format: cell-based, human; conditions: OVCAR-3, 20 hr post-transfection
# Excerpt: […] Flow cytometry can be used to analyze […] cells using the PE-A channel (excitation at 561 nm with emission at 585/15). Loss in TMRE intensity represents mitochondrial depolarization, which correlates to mitochondrial outer membrane permeabilization (MOMP). […] Bad alone constructs may have some activity, but may be weaker or slower acting than p53-Bad constructs. This underscores the importance of using apoptotic, cell death, proliferation, and oncogenic assays to paint a complete picture of construct potency/efficacy.
# (§3) […] Cells were incubated for 30 minutes at 37° C. then analyzed using flow cytometry (FACS-Canto-II with FACS Diva software, core facility, University of Utah) as described before. EGFP was excited at 488 nm with emission filter 530/35, and TMRE was excited at 561 nm with emission filter 585/15. The loss in TMRE intensity indicates mitochondrial depolarization, which correlates with an increase in the permeabilization of the mitochondrial outer membrane (MOMP). Each construct was transfected independently and tested in triplicates (n=3). The lowest MOMP value was set as 0%, and the highest MOMP value as 100% as before.
# [7] = system: ID8 cells; test: 7-AAD late apoptosis/cell death assay; format: cell-based, mouse; conditions: ID8, 24 hr post-transfection
# Procedure: as §1, §2
# [8] = system: SKOV-3, OVCAR-3, ID8 and Kuramochi cells; test: TMRE mitochondrial depolarization (MOMP) assay, statements for the four ovarian cancer cell lines; format: cell-based, human, mouse; conditions: four cell lines of FIG. 17, 20 hr post-transfection
# Procedure: as §3
# [9] = system: p53-Luc Cis-Reporter; test: Nuclear transcriptional activity p53 luciferase reporter gene assay; format: cell-based; conditions: SKOV-3, OVCAR-3, ID8 and Kuramochi cells, 24 hr post-transfection
# Procedure: All constructs (3.5 μg of DNA) were co-transfected with 3.5 μg of p53-Luc Cis-reporter plasmid encoding a firefly luciferase gene (Agilent Technologies; Santa Clara, Calif.) and 0.35 μg of pRL-SV40 plasmid encoding a Renilla luciferase gene (Promega; Madison, Wis.). Renilla luciferase was used to normalize for transfection efficiency in respective cell lines. The Dual-Glo Luciferase Assay System (Promega) was used to determine the firefly luciferase activity and Renilla luciferase activity per manufacturer's recommendation 24 hr post-transfection as before. The luminescence signal was detected using the Infinite M1000 microplate reader (Tecan; Männedorf, Switzerland). The Dual-Glo luciferase assay was performed in triplicate.
# [10] = system: Kuramochi cells; test: 7-AAD assay of constructs combined with paclitaxel; format: cell-based, human; conditions: paclitaxel 100 nM or 200 nM added 4 hr after transfection, 48 hr
# Procedure: The IC50 of paclitaxel was determined using a cell viability MTT assay. Kuramochi cells were incubated with different paclitaxel concentrations ranging from 0 nM to 1000 nM for 48 hr. […] A control group without paclitaxel (0 nM) was also included. The cells were incubated for 48 hr before the 7-AAD assay.
# [11] = system: SKOV-3 cells; test: Mitochondrial localization of EGFP-tagged constructs, fluorescence microscopy with PCC analysis; format: cell-based, human; conditions: mitochondria stained with MitoTracker Red, CMV promoter
# Procedure: as §1
# 24 hr post-transfection, cells were stained in PBS solution containing 200 nM MitoTracker Red CM-H2Xros (Thermo Scientific), 1:100 dilution of ProLong Live Antifade Reagent (Thermo Scientific), and 2 μM Hoechst stain. The cells were incubated for 20 minutes protected from light. Images were acquired using a Nikon AIR fluorescence confocal microscope with 60× Plan Apo Oil immersion objective (core facility, University of Utah). The images were visualized using NIS element software with built in EGFP, MitoTracker Red, and DAPI filters. Co-localization analyses were performed using the JACoP plugin for ImageJ software. […] The experiments were performed three times with 10 cells analyzed each experiment for a total of 30 cells per gene constructs.
Molecule,apoptosis / cell death (7-AAD) [4],apoptosis / cell death (7-AAD) [5],mitochondrial depolarization / % MOMP induction (TMRE) [6],apoptosis / cell death (7-AAD) [7],mitochondrial depolarization / % MOMP induction (TMRE) [8],nuclear transcriptional activity (firefly luciferase) [9],subcellular localization of EGFP-tagged construct [11],other results
CN(C)CC[C@H](CSc1ccccc1)Nc1ccc(S(=O)(=O)NC(=O)c2ccc(N3CCN(Cc4ccccc4-c4ccc(Cl)cc4)CC3)cc2)cc1[N+](=O)[O-] [ABT-737],,,,,,,,IC50 [1]: 10 ± 4 µM
poly (cystaminebisacryl-amide-diaminohexane)-polyethylene glycol linked to RGD (Arg-Gly-Asp) [polymer alone],,,,,,,,"immunogenicity at injection site [2]: no swelling, inflammation, or redness at injection site"
CC(=O)O[C@H]1C(=O)[C@@]2(C)[C@H]([C@H](OC(=O)c3ccccc3)[C@]3(O)C[C@H](OC(=O)[C@H](O)[C@@H](NC(=O)c4ccccc4)c4ccccc4)C(C)=C1C3(C)C)[C@]1(OC(C)=O)CO[C@@H]1C[C@@H]2O [paclitaxel],,,,,,,,IC50 [3]: ~0.1 µM
B1,inactive,comparable to EGFP (negative control) except in OVCAR-3 cells; also recorded: apoptotic activity diminishes,some activity,inactive,significant level of % MOMP,do not activate firefly luciferase,mitochondrial localization; also recorded: effectively localize to the mitochondria,effect of deleting the BH3 domain of Bad on activity (TMRE) ([6]; FIG. 20): significantly reduces the activity; effect of added paclitaxel on the activity of the construct (7-AAD) [10]: does not seem to increase
B2,inactive,comparable to EGFP (negative control) except in OVCAR-3 cells; also recorded: apoptotic activity diminishes,some activity,inactive,significant level of % MOMP,do not activate firefly luciferase,found in the cytoplasm,
